How the values were obtained:
[1] = biological target: T1, HLA-A*0201 molecule expressed on the human tumoral cell T2 (human); assay: T2 cell HLA-A2 FACS (BB7.2-PE), peptide titration
T1 construct: Empty or peptide-receptive class I molecule on T2 cells; surface level read with anti-HLA-A2 antibody BB7.2-PE after incubation with the peptide; also called HLA-A2
Experimental: (§1) T2 cells (2·10⁵ cells per well) are incubated with decreasing concentrations of peptides from 100 μM to 0.1 μM in a AIMV medium supplemented with 100 ng/μl of human β2m at 37° C. for 16 hours. Cells are then washed two times and marked with the anti-HLA-A2 antibody coupled to PE (clone BB7.2, BD Pharmagen).
(§2) The relative affinity is then determined as follows: […]

[2] = biological target: T1, HLA-A*0201 molecule expressed on the …; assay: T2 cell HLA-A2 FACS (BB7.2-PE), peptide 0.1 µM
Experimental: as §1, §2

[3] = biological target: T1, HLA-A*0201 molecule expressed on the …; assay: T2 cell HLA-A2 FACS (BB7.2-PE); ratio of 20% concentrations against HIV pol 589-597
Experimental: as §1, §2

[4] = biological target: T1, HLA-A*0201 molecule expressed on the …; assay: T2 cell HLA-A2 FACS (BB7.2-PE), peptide 1 µM
Experimental: as §1, §2

[5] = biological target: T1, HLA-A*0201 molecule expressed on the …; assay: T2 cell HLA-A2 FACS (BB7.2-PE), peptide 100 µM
Experimental: as §1, §2

[6] = biological target: T1, HLA-A*0201 molecule expressed on the …; assay: T2 cell HLA-A2 FACS (BB7.2-PE), peptide 10 µM
Experimental: as §1, §2

YLAVFLPIV [antigenic peptide STEAP-B2 (YLAVFLPIV)]
Conc. inducing 20% of HLA-A2 expression [1]: 8.22 µM
HLA-A2 labelling as % of reference peptide HIV pol 589-597 at 100 µM [2]: -0.34%
Relative affinity [3]: 0.27
HLA-A2 labelling as % of reference peptide HIV pol 589-597 at 100 µM [4]: 4.87%
HLA-A2 labelling as % of reference peptide HIV pol 589-597 at 100 µM [5]: 97.9%
HLA-A2 labelling as % of reference peptide HIV pol 589-597 at 100 µM [6]: 27.7%

ITSDVPFSV [antigenic peptide PMEL-B (ITSDVPFSV)]
Conc. inducing 20% of HLA-A2 expression [1]: 18.2 µM
HLA-A2 labelling as % of reference peptide HIV pol 589-597 at 100 µM [2]: 4.69%
Relative affinity [3]: 0.59
HLA-A2 labelling as % of reference peptide HIV pol 589-597 at 100 µM [4]: 3.62%
HLA-A2 labelling as % of reference peptide HIV pol 589-597 at 100 µM [5]: 74.8%
HLA-A2 labelling as % of reference peptide HIV pol 589-597 at 100 µM [6]: 7.93%

VMLGVVFGV [antigenic peptide ERBB2-3B1 (VMLGVVFGV)]
Conc. inducing 20% of HLA-A2 expression [1]: 9 µM
HLA-A2 labelling as % of reference peptide HIV pol 589-597 at 100 µM [2]: -16%
Relative affinity [3]: 0.25
HLA-A2 labelling as % of reference peptide HIV pol 589-597 at 100 µM [4]: -12.9%
HLA-A2 labelling as % of reference peptide HIV pol 589-597 at 100 µM [5]: 122%
HLA-A2 labelling as % of reference peptide HIV pol 589-597 at 100 µM [6]: 26.7%

VMLGVVFGI [antigenic peptide ERBB2-3B3 (VMLGVVFGI)]
Conc. inducing 20% of HLA-A2 expression [1]: 12.5 µM
HLA-A2 labelling as % of reference peptide HIV pol 589-597 at 100 µM [2]: -16.3%
Relative affinity [3]: 0.35
HLA-A2 labelling as % of reference peptide HIV pol 589-597 at 100 µM [4]: -10.6%
HLA-A2 labelling as % of reference peptide HIV pol 589-597 at 100 µM [5]: 179%
HLA-A2 labelling as % of reference peptide HIV pol 589-597 at 100 µM [6]: 16.6%

KLVEWLAML [antigenic peptide MAGE C1B (KLVEWLAML)]
Conc. inducing 20% of HLA-A2 expression [1]: 30.9 µM
HLA-A2 labelling as % of reference peptide HIV pol 589-597 at 100 µM [2]: 2.45%
Relative affinity [3]: 0.31
HLA-A2 labelling as % of reference peptide HIV pol 589-597 at 100 µM [4]: 3.97%
HLA-A2 labelling as % of reference peptide HIV pol 589-597 at 100 µM [5]: 109%
HLA-A2 labelling as % of reference peptide HIV pol 589-597 at 100 µM [6]: 21.4%

SLPPDVQQV [antigenic peptide MMP2-B (SLPPDVQQV)]
Conc. inducing 20% of HLA-A2 expression [1]: 0.88 µM
HLA-A2 labelling as % of reference peptide HIV pol 589-597 at 100 µM [2]: 4.69%
Relative affinity [3]: 0.03
HLA-A2 labelling as % of reference peptide HIV pol 589-597 at 100 µM [4]: 24.6%
HLA-A2 labelling as % of reference peptide HIV pol 589-597 at 100 µM [5]: 131%
HLA-A2 labelling as % of reference peptide HIV pol 589-597 at 100 µM [6]: 96%

MIAVFLPIV [reference human peptide derived from STEAP, STEAP-H (MIAVFLPIV)]
Conc. inducing 20% of HLA-A2 expression [1]: 33.5 µM
HLA-A2 labelling as % of reference peptide HIV pol 589-597 at 100 µM [2]: 0.11%
Relative affinity [3]: 1.08
HLA-A2 labelling as % of reference peptide HIV pol 589-597 at 100 µM [4]: -4.47%
HLA-A2 labelling as % of reference peptide HIV pol 589-597 at 100 µM [5]: 102%
HLA-A2 labelling as % of reference peptide HIV pol 589-597 at 100 µM [6]: 14.9%

RLLEETDLV [antigenic peptide ERBB2-1B (RLLEETDLV)]
Conc. inducing 20% of HLA-A2 expression [1]: 9.5 µM
HLA-A2 labelling as % of reference peptide HIV pol 589-597 at 100 µM [2]: -1.18%
Relative affinity [3]: 0.26
HLA-A2 labelling as % of reference peptide HIV pol 589-597 at 100 µM [4]: 2.86%
HLA-A2 labelling as % of reference peptide HIV pol 589-597 at 100 µM [5]: 297%
HLA-A2 labelling as % of reference peptide HIV pol 589-597 at 100 µM [6]: 26.4%

GLPPDVQRV [reference human peptide derived from MMP2, MMP2-H (GLPPDVQRV)]
Conc. inducing 20% of HLA-A2 expression [1]: 1.76 µM
HLA-A2 labelling as % of reference peptide HIV pol 589-597 at 100 µM [2]: 5.41%
Relative affinity [3]: 0.06
HLA-A2 labelling as % of reference peptide HIV pol 589-597 at 100 µM [4]: 17.8%
HLA-A2 labelling as % of reference peptide HIV pol 589-597 at 100 µM [5]: 154%
HLA-A2 labelling as % of reference peptide HIV pol 589-597 at 100 µM [6]: 66.3%

ILLGVVFGI [antigenic peptide ERBB2-3B4 (ILLGVVFGI)]
Conc. inducing 20% of HLA-A2 expression [1]: 0.9 µM
HLA-A2 labelling as % of reference peptide HIV pol 589-597 at 100 µM [2]: -11.6%
Relative affinity [3]: 0.03
HLA-A2 labelling as % of reference peptide HIV pol 589-597 at 100 µM [4]: 26.1%
HLA-A2 labelling as % of reference peptide HIV pol 589-597 at 100 µM [5]: 265%
HLA-A2 labelling as % of reference peptide HIV pol 589-597 at 100 µM [6]: 138%

MLAVFLPLV [antigenic peptide STEAP-B1 (MLAVFLPLV)]
Conc. inducing 20% of HLA-A2 expression [1]: 5 µM
HLA-A2 labelling as % of reference peptide HIV pol 589-597 at 100 µM [2]: 6.67%
Relative affinity [3]: 0.16
HLA-A2 labelling as % of reference peptide HIV pol 589-597 at 100 µM [4]: 8.92%
HLA-A2 labelling as % of reference peptide HIV pol 589-597 at 100 µM [5]: 132%
HLA-A2 labelling as % of reference peptide HIV pol 589-597 at 100 µM [6]: 45.1%

KVVEFLAML [reference human peptide derived from MAGE C1, MAGE C1H (KVVEFLAML)]
Conc. inducing 20% of HLA-A2 expression [1]: 60.1 µM
HLA-A2 labelling as % of reference peptide HIV pol 589-597 at 100 µM [2]: 5.77%
Relative affinity [3]: 1.94
HLA-A2 labelling as % of reference peptide HIV pol 589-597 at 100 µM [4]: 7.12%
HLA-A2 labelling as % of reference peptide HIV pol 589-597 at 100 µM [5]: 32.3%
HLA-A2 labelling as % of reference peptide HIV pol 589-597 at 100 µM [6]: 7.84%
